Source: patent US20110287023A1 (AstraZeneca / MedImmune, published 2011)

Legend:
[1] = target: T1, HMGB1 in joint lysate of adjuvant induced arthritis (AIA) rats (rat, UniProt P63159 2-215); assay: immunoprecipitation from AIA rat joint lysate, Western blot; paragraph 81 gives lane 2 as S16
T1 construct: also called HMGB1 from arthritis joints; joint lysate HMGB1
T1 sequence (looked up): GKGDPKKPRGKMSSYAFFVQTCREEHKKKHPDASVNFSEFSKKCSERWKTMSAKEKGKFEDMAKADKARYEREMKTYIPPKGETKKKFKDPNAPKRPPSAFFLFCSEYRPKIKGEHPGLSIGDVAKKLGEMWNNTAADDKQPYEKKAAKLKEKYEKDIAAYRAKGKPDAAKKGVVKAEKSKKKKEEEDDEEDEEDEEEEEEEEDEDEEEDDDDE
Procedure: Immunoprecipitation and Western Blot: Anti-HMGB1 mAbs (G4 and S6) and isotype control were first biotinylated using EZ-Link Sulfo-NHS-LC-Biotin as instructed by the manufacturer (Pierce). After labeling, the mAb was tested for binding to HMGB1 by ELISA with unlabeled mAbs as controls. The biological samples, joint lysate (30 μl), was mixed with […] biotinylated G4, S6 or isotype control overnight at 4° C. in 300 μl IP buffer [containing 1×PBS, pH 7.2 (Invitrogen), 0.1% Tween 20, 0.5 M sodium chloride, 10 mM sodium butyrate, and a 1:100 dilution of Phosphatase Inhibitor Cocktail I (Sigma)]. For sepsis sera, Tween 20, sodium chloride, sodium butyrate, and Phosphatase Inhibitor Cocktail I were added to 500 μl sera with the same final concentration as IP buffer. Streptavidin Sepharose beads (GE Healthcare) were blocked in 4% BSA-PBS overnight at 4° C., then washed three times with PBS and resuspended in 1×PBS resulting in 50% slurry. The bead slurry (60 μl) was then added to the overnight mAb/sample mixture and mixed for 20 minutes at room temperature. The beads were washed once with PBS, five times with IP Buffer and then washed twice with PBS by spinning at 1000 g for two min. […] The bands were detected by LumiGlo substrate solution (KPL) after washing.

[2] = target: T2, HMG1 purified from calf (bovine) thymus (bovine, UniProt P10103 2-215); assay: blocking ELISA: thymus HMGB1 pre-incubated with the antibody, then added to coated RAGE/Fc (blocked partner: RAGE/Fc); one bar per antibody, the antibody's concentration is not given
T2 construct: also called Calf thymus HMGB1; thymus HMG1
T2 sequence (looked up): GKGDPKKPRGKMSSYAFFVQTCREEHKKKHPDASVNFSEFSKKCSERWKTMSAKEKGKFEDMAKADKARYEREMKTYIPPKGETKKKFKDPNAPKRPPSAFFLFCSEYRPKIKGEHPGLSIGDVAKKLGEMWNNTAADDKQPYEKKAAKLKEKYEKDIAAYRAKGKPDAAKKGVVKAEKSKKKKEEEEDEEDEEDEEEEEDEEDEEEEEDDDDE
Procedure: HMG1 binding to RAGE-Ig by ELISA: 50 μl/well of RAGE-Fc fusion protein at 5 μg/ml in PBS was added to each well of an ELISA plate and incubated overnight at 4° C. The plate was then blocked with 200 μl of 5% milk at 37° C. for 1 hr and washed 3× with PBS/Tween. 50 μl/well of diluted HMGB1 solution. For dose curves, HMGB1 concentrations started at 4 ug/ml in PBS. For antibody blocking the HMGB1 was preincubated in another plate with human anti-HMG1 antibodies or buffer, then transferred to the RAGE-coated plate. The plates were then incubated at room temperature for 2 hours and washed 3×. To detect any HMG1 bound to the immobilized RAGE-Fc a mixture of biotinylated mouse anti-HMG1 mAbs (10D4, 4H11, 3E10 and 5C12) each at 1 ug/ml, total Ab: 4 ug/ml, were added to each well and the plate was incubated for 1 hour at room temperature. The plate was then washed and Strepavidin-HPR was added to each well and incubated 15 min. The plate was then washed 3× and blotted dry. 100 μl of TMB developing agent was added and the plate read at 650 nm. Values were calculated as percent of inhibition with HMG1 alone equal to 0% inhibition. The data in FIG. 9 and summarized in Table 1 represent the average of two separate experiments.

[3] = target: T3, HMGB1 in sera of septic peritonitis mice (mouse, UniProt P63158 1-215); assay: sandwich ELISA: antibody captured on anti-human Fc, peritonitis serum added, mouse anti-HMGB1 detection, OD 450
T3 construct: also called HMGB1 from sepsis sera (ELISA); peritonitis sera HMGB1
T3 sequence (looked up): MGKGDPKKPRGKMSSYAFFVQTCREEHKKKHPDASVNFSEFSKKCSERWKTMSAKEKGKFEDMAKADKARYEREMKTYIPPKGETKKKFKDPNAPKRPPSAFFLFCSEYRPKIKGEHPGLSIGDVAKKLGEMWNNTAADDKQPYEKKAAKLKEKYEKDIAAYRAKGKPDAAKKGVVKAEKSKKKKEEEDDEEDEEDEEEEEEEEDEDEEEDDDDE
Procedure: HMGB1 Detection from Biological Samples: For detection of the HMGB1 from AIA joint homogenates and peritonitis sera, sandwich ELISA was performed. Goat anti-human Fc (Pierce) 14 μg/ml in PBS was coated on Immunlon IV microtiter plate over night at 4° C. After washing and blocking with 5% milk 1 hr at room temperature, G4 or S6 in blocking buffer (10 μg/ml) were added to each well of the blocked plate. The plate was washed 1 hour later and 25 μl of AIA homogenates containing 0.8 μg/ml of HMGB1 or peritonitis sera containing 7 μg/ml of HMGB1 in 0.5 M NaCl/blocking buffer were added to the wells at two fold serial dilutions. The unbound materials were removed by washing one hr after incubation. The bound HMGB1 was detected by a mouse anti-HMGB1 antibody at 2 μg/ml followed by an anti-mouse antibody conjugated with horseradish peroxidase. Mouse peritonitis sera was obtained by heart puncture 7 days after infection with heat killed staphylococcus aureus. Joint lysate was prepared from the whole paw of AIA rats as described in Example 6 below. Human sepsis sera were purchased from a commercial source.

B1: human anti-HMG1 antibody S16 (antibody, IgG1, V domains shown)
VH: EVQLLESGGGLVQPGGSLRLSCAASGFTFSWYSMLWVRQAPGKGLEWVSYISPSGGFTNYADSVKGRFTISRDNSKNTLYLQMNSLRAEDTAVYYCARWDYNSGWYYDHWGQGTLVTVSS
VL: DIQMTQSPDTLSLSPGERATLSCRASQSVNSRNLAWYQQKPGQAPRLLIYGASTRATGIPDRFSGSVSGTEFTLTISSLQPDDFATYYCQQYNSYFTFGQGTKLEIK
notes: full length IgG1 made from a human Fab phage clone; also called ATCC PTA-6259
- binding result [1]: binds

B2: human anti-HMG1 antibody E11 (antibody, IgG1, V domains shown)
VH: EVQLLESGGGLVQPGGSLRLSCAASGFTFSRYQMNWVRQAPGKGLEWVSSISPSGGHTHYADSVKGRFTISRDNSKNTLYLQMNSLRAEDTAVYYCAKDGRQGKISTVDHWGQGTLVTVSS
VL: DIQMTQSPGTLSLSPGERATLSCRASQSVRSNFLAWYQQKPGQAPRLLIYGASRRASGIPDRFSGSGFGADFTLSISRLEPEDFAVYYCQQYGSSPNTFGQGSRVEIK
notes: full length IgG1 made from a human Fab phage clone
- binding result [2]: binds

B3: human anti-HMG1 antibody S6 (antibody, V domains shown)
VH: EVQLLESGGGLVQPGGSLRLSCAASGFTFSWYDMSWVRQAPGKGLEWVSRISPSGGYTMYADSVKGRFTISRDNSKNTLYLQMNSLRAEDTAVYYCARLEVGATSGGTAFDIWGQGTMVTVSS
VL: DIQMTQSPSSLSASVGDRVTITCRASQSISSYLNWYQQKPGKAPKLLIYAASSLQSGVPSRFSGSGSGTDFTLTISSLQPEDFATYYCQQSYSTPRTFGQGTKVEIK
notes: full length IgG1 made from a human Fab phage clone; two paragraphs print 'S4' for the PTA-6143 deposit; also called ATCC PTA-6143
- binding result [3]: binds
